Measurements: IntAct's records for PubMed 10946006

B1: Microsomal triglyceride transfer protein large subunit (Homo sapiens), P55157 (parent)
chain: MILLAVLFLCFISSYSASVKGHTTGLSLNNDRLYKLTYSTEVLLDRGKGKLQDSVGYRISSNVDVALLWRNPDGDDDQLIQITMKDVNVENVNQQRGEKSIFKGKSPSKIMGKENLEALQRPTLLHLIHGKVKEFYSYQNEAVAIENIKRGLASLFQTQLSSGTTNEVDISGNCKVTYQAHQDKVIKIKALDSCKIARSGFTTPNQVLGVSSKATSVTTYKIEDSFVIAVLAEETHNFGLNFLQTIKGKIVSKQKLELKTTEAGPRLMSGKQAAAIIKAVDSKYTAIPIVGQVFQSHCKGCPSLSELWRSTRKYLQPDNLSKAEAVRNFLAFIQHLRTAKKEEILQILKMENKEVLPQLVDAVTSAQTSDSLEAILDFLDFKSDSSIILQERFLYACGFASHPNEELLRALISKFKGSIGSSDIRETVMIITGTLVRKLCQNEGCKLKAVVEAKKLILGGLEKAEKKEDTRMYLLALKNALLPEGIPSLLKYAEAGEGPISHLATTALQRYDLPFITDEVKKTLNRIYHQNRKVHEKTVRTAAAAIILNNNPSYMDVKNILLSIGELPQEMNKYMLAIVQDILRFEMPASKIVRRVLKEMVAHNYDRFSRSGSSSAYTGYIERSPRSASTYSLDILYSGSGILRRSNLNIFQYIGKAGLHGSQVVIEAQGLEALIAATPDEGEENLDSYAGMSAILFDVQLRPVTFFNGYSDLMSKMLSASGDPISVVKGLILLIDHSQELQLQSGLKANIEVQGGLAIDISGAMEFSLWYRESKTRVKNRVTVVITTDITVDSSFVKAGLETSTETEAGLEFISTVQFSQYPFLVCMQMDKDEAPFRQFEKKYERLSTGRGYVSQKRKESVLAGCEFPLHQENSEMCKVVFAPQPDSTSSGWF
partner: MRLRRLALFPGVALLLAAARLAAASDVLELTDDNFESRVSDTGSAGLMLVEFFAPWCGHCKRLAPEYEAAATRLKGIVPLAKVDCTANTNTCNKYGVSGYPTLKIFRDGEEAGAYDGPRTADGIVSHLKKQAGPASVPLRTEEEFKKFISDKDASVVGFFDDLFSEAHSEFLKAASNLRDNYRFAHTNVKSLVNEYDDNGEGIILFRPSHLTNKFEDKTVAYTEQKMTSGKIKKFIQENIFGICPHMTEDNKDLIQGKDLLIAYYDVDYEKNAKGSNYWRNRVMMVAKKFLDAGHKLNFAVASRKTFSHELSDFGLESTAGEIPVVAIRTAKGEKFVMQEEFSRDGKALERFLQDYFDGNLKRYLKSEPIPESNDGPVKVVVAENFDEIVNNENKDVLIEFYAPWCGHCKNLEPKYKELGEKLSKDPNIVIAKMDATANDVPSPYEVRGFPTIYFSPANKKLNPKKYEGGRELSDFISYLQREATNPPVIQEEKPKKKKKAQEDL

Variants of: B1
Conditions: with pdia3_chlae PDIA3, Q4VIT4

| effect of a mutation on the interaction | Variant |
| --- | --- |
| with no effect | N780Y |
